# Test results as given in article PMC9352346.
# B1: Arl15-AL-Myc [human] / GST-Smad4 [not stated] (parent)
# chain 1: MSDLRITEAFLYMDYLCFRALCCKGPPPARPEYDLVCIGLTGSGKTSLLSKLCSESPDNVVSTTGFSIKAVPFQNAILNVKELGGLDNIRKYWSRYYQGSQGVIFVLDSASSEDDLEAARNELHSALQHPQLCTLPFLILANHQDKPAARSVQEIKKYFELEPLARGKRWILQPCSLDDMDALKDSFSQLINLLEEKDHEAVRM
# chain 2: MDNMSITNTPTSNDACLSIVHSLMCHRQGGESETFAKRAIESLVKKLKEKKDELDSLITAITTNGAHPSKCVTIQRTLDGRLQVAGRKGFPHVIYARLWRWPDLHKNELKHVKYCQYAFDLKCDSVCVNPYHYERVVSPGIDLSGLTLQSNAPSSMMVKDEYVHDFEGQPSLSTEGHSIQTIQHPPSNRASTETYSTPALLAPSESNATSTANFPNIPVASTSQPASILGGSHSEGLLQIASGPQPGQQQNGFTGQPATYHHNSTTTWTGSRTAPYTPNLPHHQNGHLQHHPPMPPHPGHYWPVHNELAFQPPISNHPAPEYWCSIAYFEMDVQVGETFKVPSSCPIVTVDGYVDPSGGDRFCLGQLSNVHRTEAIERARLHIGKGVQLECKGEGDVWVRCLSDHAVFVQSYYLDREAGRAPGDAVHKIYPSAYIKVFDLRQCHRQMQQQAATAQAAAAAQAAAVAGNIPGPGSVGGIAPAISLSAAAGIGVDDLRRLCILRMSFVKGWGPDYPRQSIKETPCWIEIHLHRALQLLDEVLHTMPIADPQPLD
# Variants of: B1
# Test: GST pull-down, immunoblot band quantification
# Settings: with GST-Smad4; HeLa cell lysates; bead-immobilized GST-Smad4; parent: 100
row,Variant,percent of parent
1,chain 1 R95C,38
2,chain 1 E82K,95
3,chain 1 R90L,22
4,chain 1 Y96F,47
